Literature values, collected in paper PMC9079180.

Biological target: tau (Homo sapiens)

Hsp70, sequence (P0A6Z0 2-638): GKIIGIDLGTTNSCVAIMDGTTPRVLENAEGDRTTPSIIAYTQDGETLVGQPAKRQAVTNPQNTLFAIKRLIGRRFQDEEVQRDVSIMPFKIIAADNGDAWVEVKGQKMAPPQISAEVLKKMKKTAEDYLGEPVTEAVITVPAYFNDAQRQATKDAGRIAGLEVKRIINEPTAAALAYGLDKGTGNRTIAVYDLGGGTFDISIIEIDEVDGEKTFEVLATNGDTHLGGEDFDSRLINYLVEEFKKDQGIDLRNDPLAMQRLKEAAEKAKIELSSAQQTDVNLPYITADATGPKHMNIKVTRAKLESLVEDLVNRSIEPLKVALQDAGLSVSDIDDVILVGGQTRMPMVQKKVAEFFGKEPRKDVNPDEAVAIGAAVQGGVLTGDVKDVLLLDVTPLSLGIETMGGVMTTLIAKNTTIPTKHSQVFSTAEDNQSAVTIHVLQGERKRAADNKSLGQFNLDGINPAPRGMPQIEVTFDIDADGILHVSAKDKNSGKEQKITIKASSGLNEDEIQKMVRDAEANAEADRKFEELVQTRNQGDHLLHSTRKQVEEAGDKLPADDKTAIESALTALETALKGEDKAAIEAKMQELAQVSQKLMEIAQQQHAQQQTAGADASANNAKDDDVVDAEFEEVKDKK

Question: With Hsp70 (from UniProt P0A6Z0) as the substance, how does the Kd read?
Answer: The Kd was 400 nM.
